Molecular target: VipB on the GAL4 DNA-binding domain (pGBKT7) (V. cholerae)
Test: two-hybrid
Details: not given

Substance	relative β-gal activity [%]
VipA D104A fused to the GAL4 activation domain (pGADT7) (natural protein)	92.7
VipA D104A/V106A fused to the GAL4 activation domain (pGADT7) (natural protein)	64.1
VipA V106A fused to the GAL4 activation domain (pGADT7) (natural protein)	92.4
VipA D104A/V106A/V110A fused to the GAL4 activation domain (pGADT7) (natural protein)	48.8
VipA V110A fused to the GAL4 activation domain (pGADT7) (natural protein)	74.6
VipA fused to the GAL4 activation domain (pGADT7) (natural protein)	100

Molecular target: VipB fused to the zinc finger DNA-binding domain of murine Zif268
Test: not given
Details: parent: est. 680; read off a plot

Substance	response [Miller units]
VipA fused to the ω subunit of E. coli RNAP D104A; V106A	230
VipA fused to the ω subunit of E. coli RNAP L113A	490
VipA fused to the ω subunit of E. coli RNAP E112A	720
VipA fused to the ω subunit of E. coli RNAP V110A	430
VipA fused to the ω subunit of E. coli RNAP D104A	460
VipA fused to the ω subunit of E. coli RNAP D104A; V106A; V110A	120
VipA fused to the ω subunit of E. coli RNAP D104A; V106A; V110A; L113A	90
VipA fused to the ω subunit of E. coli RNAP V110A; L113A	120
VipA fused to the ω subunit of E. coli RNAP S108A	720
VipA fused to the ω subunit of E. coli RNAP V106A	460
VipA fused to the ω subunit of E. coli RNAP Q109A; V110I	710
VipA fused to the ω subunit of E. coli RNAP P111A	590
VipA fused to the ω subunit of E. coli RNAP Q109A	630
